From US20210000895A1 (RHODE ISLAND HOSPITAL, published 2021)

Molecular target: CD4 receptor on primary human CD4+ T lymphocytes (human, UniProt P01730 26-458)
Test: cell-based or functional assay

B1: IL-16/Lamp2b fusion protein (Interleukin (IL)-16 C-terminal 20 amino acid domain fused to the N-terminus of lysosome-associated membrane protein 2 variant b), … (other)
chain: GNSTMGSGTIVIRRKSLQSKETTAAGDSGSGSGSGGSSLELNLTDSENATCLYAKWQMNFTVRYETTNKTYKTVTISDHGTVTYNGSICGDDQNGPKIAVQFGPGFSWIANFTKAASTYSIDSVSFSYNTGDNTTFPDAEDKGILTVDELLAIRIPLNDLFRCNSLSTLEKNDVVQHYWDVLVQAFVQNGTVSTNEFLCDKDKTSTVAPTIHTTVPSPTTTPTPKEKPEAGTYSVNNGNDTCLLATMGLQLNITQDKVASVININPNTTHSTGSCRSHTALLRLNSSTIKYLDFVFAVKNENRFYLKEVNISMYLVNGSVFSIANNNLSYWDAPLGSSYMCNKEQTVSVSGAFQINTFDLRVQPFNVTQGKYSTAQECSLDDDTILIPIIVGAGLSGLIIVIVIAYVIGRRKSYAGYQTLGSGYPYDVPDYA
In the case of B1, the “Tat protein delivery to rCD4+T lymphocytes (Western blot of intracellular Tat), EXO^CD4-Tat exosomes compared to EXO-Tat exosomes” value is reported as 20 fold.
